Assay results from paper PMC12381709, “Fluorinating the Sugar and the Nucleotide: Exploring Fluorination Within GDP-Mannose Probes Using Chemoenzymatic Synthesis” (JACS Au, 2025).

How the values were obtained:
Assay in all cases: purified protein
Conditions in all cases: co-substrate NAD+
[1] = system: Nc1nc2c(ncn2[C@@H]2O[C@H](COP(=O)(O)OP(=O)(O)O[C@H]3O[C@H](CO)[C@@H](O)[C@H](O)[C@@H]3F)[C@@H](O)[C@H]2O)c(=O)[nH]1
[2] = system: Nc1nc2c(ncn2[C@@H]2O[C@H](COP(=O)(O)OP(=O)(O)O[C@H]3O[C@H](CO)[C@@H](O)[C@H](O)[C@@H]3O)[C@@H](O)[C@H]2O)c(=O)[nH]1
[3] = system: Nc1nc2c(ncn2[C@@H]2O[C@H](COP(=O)(O)OP(=O)(O)O[C@H]3O[C@H](CO)[C@@H](O)[C@H](O)[C@@H]3O)[C@@H](O)[C@H]2F)c(=O)[nH]1
[4] = system: Nc1nc2c(ncn2[C@@H]2O[C@H](COP(=O)(O)OP(=O)(O)O[C@H]3O[C@H](CO)[C@@H](O)[C@H](O)[C@@H]3F)[C@@H](O)[C@H]2F)c(=O)[nH]1

Work on “GDP-mannose dehydrogenase (GMD; PaGMD) (Pseudomonas aeruginosa PAO1)” yielded a Km [1] of 134.29 ± 12.78 µM, a kcat [1] of 0.0655 ± 0.00267 s⁻¹ and a Km [2] of 18.18 ± 3.82 µM. For the same substance, the kcat [2] was 0.0427 ± 0.00333 s⁻¹, the Km [3] was 20.95 ± 0.83 µM and the kcat [3] was 0.0507 ± 0.00067 s⁻¹. It also gave a Km [4] of 87.72 ± 5.82 µM and a kcat [4] of 0.0407 ± 0.0012 s⁻¹.
